In US20090136500A1:

Tests used:
[1] = molecular target: PAI-1 (antigen of Example 11, species not stated); test: SPR-type biosensor, 25 C, global 1:1 fit (format for mP-1 not given)
[2] = molecular target: PAI-1 (immobilized antigen of the P-ELISA of Figure 13, species not stated); test: P-ELISA on immobilized biotin-labeled PAI-1 (species not stated), antibody with EDTA, A450
Chain of PAI-1 (immobilized antigen of the P-ELISA of Figure 13, species not stated) (P05121 24-402): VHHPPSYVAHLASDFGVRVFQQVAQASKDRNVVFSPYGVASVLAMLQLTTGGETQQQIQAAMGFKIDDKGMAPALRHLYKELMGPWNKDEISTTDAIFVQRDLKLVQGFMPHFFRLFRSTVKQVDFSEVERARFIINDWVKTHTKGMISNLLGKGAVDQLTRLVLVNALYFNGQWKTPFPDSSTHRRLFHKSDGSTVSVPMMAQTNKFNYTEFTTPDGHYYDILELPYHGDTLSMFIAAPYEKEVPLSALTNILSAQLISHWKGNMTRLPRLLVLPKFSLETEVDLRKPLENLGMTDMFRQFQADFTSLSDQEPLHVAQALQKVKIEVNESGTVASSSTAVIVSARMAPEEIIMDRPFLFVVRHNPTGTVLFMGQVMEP

Chain of PAI-1 (antigen of Example 11, species not stated) (P05121 24-402): as above

Kd [1]: 8.01 nM
koff [1]: 0.00314 s⁻¹
kon [1]: 393000 M⁻¹ s⁻¹
EC50 (read off the curve) [2]: 0.1 µg/mL
B1: murine monoclonal antibody 33B8 (antibody, V domains shown)
VH: QIQLVQSGPELKKPGKTVTISCKASGYTFTNYGMNWVKQAPGKGLKWMGWINTYTGEPTYTDDFKGRFAFSLDTSASTAYLQISNLKNEDTATYFCAKDVSGFVFDYWGQGTTVTVSS
VL: DIVMTQSPSSLAVSVGEKVTMSCKSSQSLLNIIKQKNCLAWYQQKPGQSPKLLIYWASTRESGVPDRFTGSGSGTDFTLTISSVKAEDLAVYYCQQYYSYPYTFGGGTKLEIK
